Test [1] concerns the target T1, native bovine milk β-lactoglobulin (nBLG, Sigma) (bovine, UniProt P02754 17-178, biotinylated where immobilised on streptavidin wells or chips; the soluble competitor and the crystallised protein are not biotinylated).
T1 construct: also called native BLG; β-lactoglobulin AB dimer
T1 sequence: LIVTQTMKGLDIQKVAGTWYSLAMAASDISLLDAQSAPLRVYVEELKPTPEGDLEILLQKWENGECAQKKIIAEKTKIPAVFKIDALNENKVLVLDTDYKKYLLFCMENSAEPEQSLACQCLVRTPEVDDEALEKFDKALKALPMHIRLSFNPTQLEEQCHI
In words: competitive ELISA: biotinylated BLG AB dimer on streptavidin wells, KRVG peptide incubated with the immobilised BLG, wells washed or not washed, then D1 IgE Fab (the blocked ligand); AFOS-conjugated goat anti-human kappa antibody, A405.

Test [2] concerns the target T2, bsa (Bos taurus (bovine), UniProt P02769).
T2 construct: also called bovine serum albumin
In words: ELISA: D1 IgE Fab on wells with bovine serum albumin, AFOS-conjugated goat anti-human kappa antibody, A405 after 20 min.

Test [3] has as its target T3, rBLG-His6 T18Y (bovine, UniProt P02754 17-178, biotinylated with Sulfo-NHS-LC-biotin (2 mol biotin : 1 mol protein) for immobilisation).
T3 chain: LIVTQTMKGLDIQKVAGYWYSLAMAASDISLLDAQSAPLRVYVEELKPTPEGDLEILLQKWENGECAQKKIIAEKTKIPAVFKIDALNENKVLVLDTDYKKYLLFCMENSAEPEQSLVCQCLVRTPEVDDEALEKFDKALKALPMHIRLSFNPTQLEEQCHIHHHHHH
In words: BIAcore SPR, biotinylated rBLG-His6 T18Y on streptavidin chip, D1 IgE Fab as analyte (1.1-138.9 nM).

Test [4] deals with T1, native bovine milk β-lactoglobulin …. In words: BIAcore SPR, biotinylated nBLG on streptavidin chip, D1 IgE Fab as analyte (1.1-138.9 nM).
Test [5] deals with T4, rBLG-His6 (recombinant bovine β-lactoglobulin with C-terminal His6 tag) (bovine, UniProt P02754 17-178, biotinylated with Sulfo-NHS-LC-biotin (2 mol biotin : 1 mol protein) for immobilisation).
T4 construct: It was secreted to the E. coli periplasm through a pelB signal that is not part of the entry; also called recombinant BLG
T4 chain: T3 chain with Y18T
In words: BIAcore SPR, biotinylated rBLG-His6 on streptavidin chip, D1 IgE Fab as analyte (1.1-138.9 nM).

Test [6] addresses T5, rBLG-His6 T18Y/E45Y/L57Y (bovine, UniProt P02754 17-178, biotinylated with Sulfo-NHS-LC-biotin (2 mol biotin : 1 mol protein) for immobilisation).
T5 construct: also called Triple mutant; Triple
T5 chain: T3 chain with E45Y, L57Y
Description: ELISA: 1 µg biotinylated BLG on streptavidin wells, D1 IgE Fab, AFOS-conjugated goat anti-human kappa antibody, A405 after 20 min.

Substitutions are numbered along the chain they refer to.

T2 sequence (P02769 25-607 limits assumed): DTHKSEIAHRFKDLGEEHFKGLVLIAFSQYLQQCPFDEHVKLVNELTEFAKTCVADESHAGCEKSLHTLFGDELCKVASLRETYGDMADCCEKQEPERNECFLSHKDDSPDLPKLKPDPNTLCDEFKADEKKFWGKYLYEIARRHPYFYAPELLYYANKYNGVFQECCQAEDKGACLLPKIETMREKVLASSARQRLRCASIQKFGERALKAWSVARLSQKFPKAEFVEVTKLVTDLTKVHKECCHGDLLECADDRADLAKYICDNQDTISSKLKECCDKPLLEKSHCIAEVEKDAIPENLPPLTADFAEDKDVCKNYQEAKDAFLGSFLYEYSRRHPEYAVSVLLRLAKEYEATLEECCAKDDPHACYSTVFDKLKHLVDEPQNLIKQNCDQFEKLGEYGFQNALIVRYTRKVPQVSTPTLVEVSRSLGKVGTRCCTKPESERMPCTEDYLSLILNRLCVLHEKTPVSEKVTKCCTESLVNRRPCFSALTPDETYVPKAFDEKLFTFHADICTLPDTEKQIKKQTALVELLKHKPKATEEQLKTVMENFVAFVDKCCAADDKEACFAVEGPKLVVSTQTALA

B1: peptide KRVG (from the HCDR3 of D1 IgE Fab) (peptide)
peptide: KRVG
Take B1: the binding result in test [1] is “binds”.

B2: D1 IgE Fab (human anti-β-lactoglobulin Fab fragment with human IgG1 subtype, derived from the D1 scFv of a human IgE scFv phage library) (Fab, V domains shown)
VH: QVSLRESGGGLVQPGRSLRLSCTASGFTFRHHGMTWVRQAPGKGLEWVASLSGSGTKTHFADSVKGRFTISRDNSNNTLYLQMDNVRDEDTAIYYCAKAKRVGATGYFDLWGRGTLVTVSS
VL: DIVMTQSPSSLSASVGDRVTITCRASQGISSRLAWYQQKPGKAPKLLIYAASSLQSGVPSRFSGSGSGTEFTLTISSLQPEDFATYYCQQYHSYPWTFGQGTKVEIKR
notes: it was made in E. coli RV308 and purified on nickel; also called D1/Fab; Fab/D1
Take B2: in test [2], the binding result is listed as “no binding (tested: 1:15000 dilution of 1.6 mg/ml)”. Also, in test [3], the Ka was 1.6e+06 M⁻¹; the affinity, expressed as Kd, was 610 nM; the koff was determined as 0.082 s⁻¹; the kon is 130000 M⁻¹ s⁻¹. Also, in test [4], the Ka turned out to be 3.7e+08 M⁻¹, the Kd amounted to 2.7 nM, the koff came out at 0.0048 s⁻¹ and the kon came out at 1.8e+06 M⁻¹ s⁻¹. In test [5], the Ka turned out to be 1.2e+08 M⁻¹, the Kd was 8.5 nM, the koff worked out at 0.0082 s⁻¹ and the kon was 961000 M⁻¹ s⁻¹. Besides, the binding result in test [6] is listed as “no binding (tested: 1:15000 dilution of 1.6 mg/ml)”.
